Tests used:
[1] = target: T1, synoviolin activity of ubiquitinating P4HA1 (Homo sapiens, UniProt Q86TM6); experiment: Inhibition of ubiquitination activity using ELISA; assay type: biochemical; conditions: anti-GST capture, anti-ubiquitin detection, OD 450 nm
T1 construct: comprises a MBP-fused synoviolin that lacks the transmembrane segment (TM) (synoviolin dTM); made in house; host or cells: Escherichia coli
Method: A 96-well ELISA plate was adsorbed with an anti-GST antibody at 4° C. overnight and then blocked with 5% BSA/PBS solution at room temperature until it was used. The plate was washed twice before use with 300 μL of PBS containing 0.3% BSA (PBSA).
A standard reaction mixture comprising 80 ng MBP-synoviolin-His, 40 ng GST-P4HA1, 15 ng E1, 200 ng His-E2, 5 mM MgCl2, 2 mMATP, 1 mM DTT, 0.1% BSA, 0.3% DMSO, and a test compound in 30 μL of 50 mM HEPES (pH 7.5) solution was prepared in a reaction tube. After a 30 minute reaction at room temperature, 70 μL of a solution containing 70 mM EDTA and 50 mM HEPES was added to terminate the reaction. This (30 μl) was added to a plate previously containing 70 μL PBSA and incubated at room temperature for 1 hour. After washing three times with 300 μL of PBSA, 100 μL of a mouse anti-ubiquitin antibody solution diluted 1:5000 in PBSA was added, and the mixture was incubated at room temperature for 1 hour. After three washes with 300 μL of PBSA, 100 μL of a peroxidase-labeled anti-mouse IgG solution diluted 1:10000 in PBSA was added, and the mixture was incubated at room temperature for 1 hour. […] When a sufficient coloration was observed, 1 M phosphoric acid was added to terminate the reaction, and the optical density at 450 nm was measured.

[2] = target: T1, synoviolin activity of ubiquitinating P4HA1; experiment: Inhibition of ubiquitination activity using energy transfer of XL665-Eu(K) (HTRF method); assay type: biochemical; conditions: Eu(K)-labeled ubiquitin, GST-P4HA1 substrate, compared with binding inhibition
Method: A method of high-throughput screening (HTS) for compounds that inhibit the synoviolin activity of ubiquitinating P4HA1 was investigated. A system was designed in which ubiquitination by Eu(K)-labeled ubiquitin was conducted using P4HA1 expressed as a GST-fused protein as a substrate. When P4HA1 underwent Eu(K)-labeled ubiquitination, energy transfer occurred between an XL665-labeled anti-GST antibody and an Eu(K)-labeled ubiquitin, and fluorescence was detected.
A standard reaction mixture comprising 60 ng MBP-synoviolin-His, 15 ng GST-P4HA1, 15 ng E1 (Boston Biochem), 200 ng His-E2, 6.25 nM Eu(K)-labeled ubiquitin (CIS bio international), 5 mM MgCl2, 2 mM ATP, 1 mM DTT, 0.1% BSA, 0.3% DMSO, and a test compound in 15 μL of a 20 mM HEPES (pH 7.5) solution was prepared using a 384-well plate. After a 30 minute reaction at 37° C., 5 μL of 0.5 M EDTA was added to terminate the reaction. To this was added 5 μL of 20 mM HEPES solution containing an XL665-labeled […] antibody (0.025 μg) and 1 M K, and the mixture was left to stand overnight at room temperature, and the fluorescence was measured using RUBYstar™.

T1 sequence (Q86TM6 246-617 limits assumed): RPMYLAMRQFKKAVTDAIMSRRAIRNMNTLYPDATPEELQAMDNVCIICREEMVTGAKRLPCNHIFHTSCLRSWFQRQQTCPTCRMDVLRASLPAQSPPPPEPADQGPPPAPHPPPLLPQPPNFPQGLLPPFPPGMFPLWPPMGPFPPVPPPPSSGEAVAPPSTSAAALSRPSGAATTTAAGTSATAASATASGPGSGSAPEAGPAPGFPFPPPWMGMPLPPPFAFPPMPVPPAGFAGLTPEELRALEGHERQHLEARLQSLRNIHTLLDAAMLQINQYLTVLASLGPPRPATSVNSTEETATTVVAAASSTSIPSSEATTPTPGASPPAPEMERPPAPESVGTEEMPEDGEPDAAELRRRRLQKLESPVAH

DNVCIICREEMVTGAKRLDCN [SEQ ID NO: 5] was tested, and the “IC50 of inhibition of the ubiquitination of P4HA1” value [1] was 55 µg/mL and the “concentration inhibiting the ubiquitination of P4HA1, relative to that for inhibition of the binding” value [2] was 20 times lower.
